Here are results for 4 molecules from patent US12281161B2, “Polypeptides and uses thereof” (TRUSTEES OF BOSTON UNIVERSITY, priority 2021, dated 2025).

The test system of data set [1] is NCI-H358. Put plainly: in vitro cytotoxicity (MTT). The class given is cell-based, human. Here is the method: (§1) We utilized two different incubation methods.
(§2) We then incubated the human cell lines with ADC, and equivalent concentrations of MMAE and native Ab for both 48 hours and 72 hours, the results of which can be seen in FIG. 13A-13E. We expected the results to correlate with the GPR87 expression we observed by flow cytometry. For the normal cell lines, this was the case. As detailed in FIG. 14, the line that was most sensitive to the ADC were the NHLFs, followed by the BEAS-2Bs, and the line with the lowest GPR87 expression, the HUVECs, had the highest IC50 after 72 hours. However, both the NSCLC cell lines had relatively high IC50s given the GPR87 expression status of these lines.
(§3) In comparison, NCI-H358 and NCI-H520 see approximately a 4-fold or 2-fold decrease in IC50, respectively, between the two time points. On the other hand, the NCI-H520 line has almost a 10-fold increase in MMAE IC50 at 72 hours compared to 48 hours. The results are likely because the cell lines are different sizes and morphologies and therefore are at different confluencies when plated at the same number of cells per well and are therefore likely to be in different parts of their log growth phase during treatment. For example, the NSCLC lines are typically at very low confluency at a plating density of 5,000 cells per well and may not reach log phase growth until later in the assay. As MMAE affects actively dividing cells, this will affect the results of the assay. While 72 hours was not the optimized end time point for all five cell lines, in order to have a standardized cell plating density, and therefore same ADC:cell ratio, going past 72 hours for some of the cell lines would lead to confluency or death in untreated control cells, which would also confound results. Thus, we incubated the two NSCLC lines for longer periods of time to allow the control cells to become more confluent by the assay endpoint, and to see how this would affect the ADC IC50.
(§4) Standard cytotoxicity assays, like the MTT assays ran here, measure or rather, approximate the cell number at an end point and compare to control untreated cells. Effectively what is measured is a comparison between growth rates. When comparing the efficacy of a drug, particularly a mitotic inhibitor, among different cell lines, division rate differences due to biology, media additives, or seeding density can have a dramatic effect on the IC50, an issue brought up by Hafner et al. They reported with both modeling and in vitro assays how using the IC50 as a metric can actually mask the true mechanism of a drug, for example the microtubule inhibitor paclitaxel. […] GR values indicate whether a drug inhibits growth (0<GR<1), is cytostatic (GR=0) or cytotoxic (GR<0). To calculate this parameter, one needs cell count data for at least two different time points and compares experimental growth rates to the growth rate of control cells. […] Consequently, we reviewed the data at our two time points to perform a similar analysis. We plated at the same seeding density for both the 48 and 72 hour time points. As MTT is an endpoint assay rather than a kinetic assay like MTS, we can use MTT signal as a proxy for cell count. […] Therefore, we excluded this cell line from our analysis. We are technically assessing the effect the ADC or equivalent MMAE has on the growth rate of cells at 60 hours, as we are measuring at t=x±delta t, with x being 60 and delta t being 12 hours. Ideally, we would assess an earlier time point or even multiple time points. […] (FIGS. 19A-19D). Conversely, both NCI-H520 and NCI-H358 are cytotoxic (GR<0) at higher concentrations of ADC at this time point. […] While the GR50 data is still not in agreement with GPR87 expression, it does indicate that this type of analysis at other, earlier, time points is useful in assessing the dynamics of ADC and MMAE cytotoxicity in these cell lines.

In data set [2] the target is GPR87 antigen (Homo sapiens, UniProt Q9BY21). Put plainly: custom ELISA binding analysis of αGPR87 antibody, Ab-CCK and ADC. As for the experimental part:
With the CCE-MMAE peptide successfully synthesized and previous optimization of the antibody loading process with the AFC, it was facile to translate the method to formulating the ADC. Using a similar custom ELISA as before, but with a secondary antibody recognizing mouse antibody, it was contemplated whether the loading of CCE-MMAE, the 50° C. incubation, or even the expression of the peptide tails affected the binding affinity of the antibody. (FIG. 8C) What was found was initially surprising, which was that by adding the peptide tails onto the antibody, the Kd was affected. […] However, if it was taken into consideration the SEC data showing the larger aggregates formed by these antibodies, the results are more consistent. The original analysis was done by using the wt/vol concentration of the antibodies. However, if there are larger aggregates forming such as hexamers of Ab-CCK or hexamers, trimers, and monomers of the ADC, then equivalent wt/vol concentrations will vary by molarity. If it was assumed the Ab-CCK exists as a hexamer and therefore at the same wt/vol concentration as the native Ab is at one sixth the molar concentration, the binding data can be reanalyzed with these adjusted molarities. Similarly, it can be assumed the ADC is forming on average trimers and adjust the molar concentration by one third accordingly. The resulting curves are similar, with the Ab, Ab-CCK, and ADC having Kds of approximately 0.43, 0.46, and 0.41 nM, respectively.
(ELISA stands for enzyme-linked immunosorbent assay.)

Data set [3] has as its system NCI-H520. Put plainly: in vitro cytotoxicity (MTT). The class given is cell-based, human. Here is the method:
as §1, §2, §3, §4

Data set [4] deals with NCI-H358, NCI-H520, NHLF, BEAS-2B, HUVEC. Put plainly: in vitro cytotoxicity, comparison of ADC and MMAE over the five cell lines. The data set is classed as cell-based, human. The note with it: 48 and 72 hours. Here is the method: as §2
We investigated analyzing other parameters, such as the area under the curve (AUC) for the five cell lines as we noted that the hill slope was variable between different cell lines and between ADC and MMAE treatments. By assessing the AUC, we could interpret the total cytotoxicity of the treatment over all concentrations tested. Rather than the large (>100) fold differences in ADC and MMAE IC50s observed in FIG. 14, FIG. 16 indicates the difference in toxicity between the two are less pronounced, on the order of 1-3-fold difference. However, comparing the toxicity of the ADC across the cell lines, the relationships, or lack thereof, between toxicity and GPR87 expression remain largely the same.

Data set [5] deals with BEAS-2B. Put plainly: in vitro cytotoxicity (MTT). The data set is classed as cell-based, human. As for the experimental part:
as §1, §2, §4

The test system of data set [6] is NHLF. Put plainly: in vitro cytotoxicity (MTT). The data set is classed as cell-based, human. As for the experimental part: as §1, §2, §4
For data set [7], the system named is NIH-3T3. Put plainly: in vitro cytotoxicity, negative control line. The note with it: NIH-3T3, 10 μg/ml ADC, 72 hours.
Description: We incubated NIH-3T3s with up to 10 μg/ml of ADC (67 nM, equivalent to 96 ng/ml of MMAE) along with the native antibody and MMAE alone at equivalent concentrations.
[8] abbreviates: Ab-CCK assumed hexamer, ADC assumed trimer (from SEC), read-out: Kd, reanalyzed with adjusted molarities.
Setting [9] is: ELISA, analysed by wt/vol concentration, read-out: Kd.

Like-named read-outs stand apart in the source and are kept apart here. Primed or numbered codes have the meaning given here. Where no end group is shown, it is not given here. [ ]: non-standard residue; d: D form. DBCO‑MMAE = DBCO-PEG3-glutamic acid-valine-citrulline-p-aminobenzylcarbamate-MMAE (DBCO-PEG3-EVC-PABC-MMAE); Lys(N3)′ = its azide, alkyne or alkene has reacted where a group follows in round brackets

GPR87 antigen, sequence (Q9BY21 whole entry): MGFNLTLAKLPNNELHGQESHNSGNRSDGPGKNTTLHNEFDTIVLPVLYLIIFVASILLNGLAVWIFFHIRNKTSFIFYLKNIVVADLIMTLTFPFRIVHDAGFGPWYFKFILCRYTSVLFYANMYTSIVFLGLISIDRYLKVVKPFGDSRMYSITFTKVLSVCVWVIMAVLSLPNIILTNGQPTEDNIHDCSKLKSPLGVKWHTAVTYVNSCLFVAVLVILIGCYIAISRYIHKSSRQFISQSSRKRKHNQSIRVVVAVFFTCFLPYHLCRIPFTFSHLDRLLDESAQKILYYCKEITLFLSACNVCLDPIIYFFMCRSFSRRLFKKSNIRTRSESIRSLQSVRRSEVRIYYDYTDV

Regarding “CCE-MMAE: CCE peptide (SEQ ID NO: 3) conjugated at azido lysine with DBCO-MMAE (MKLEEIVSELEEIVSELEEIV[Lys(N3)′](DBCO‑MMAE)ELEEIVYEVGER)”, the toxicity result in data set [1] (NCI-H358, 72 hours, concentrations equivalent to ADC) is “Toxicity was only observed at the highest concentration”.

B1: Ab: native murine αhGPR87 IgG1 antibody (331CL), plasmids from Creative Biolabs (antibody)
heavy: EVQLQQSGPDLVKPGASMKISCKASGYSFTDYTMHWVKQSHGKNFEWIGLINPYNDGTTYNQKFKGKATLTVDKSSSTAYMELLSLTSEDSAVYYCASLDYWGQGTSVTVSSAKTTPPSVYPLAPGSAAQTNSMVTLGCLVKGYFPEPVTVTWNSGSLSSGVHTFPAVLQSDLYTLSSSVTVPSSTWPSETVTCNVAHPASSTKVDKKIVPRDCGCKPCICTVPEVSSVFIFPPKPKDVLTITLTPKVTCVVVDISKDDPEVQFSWFVDDVEVHTAQTQPREEQFNSTFRSVSELPIMHQDWLNGKEFKCRVNSAAFPAPIEKTISKTKGRPKAPQVYTIPPPKEQMAKDKVSLTCMITDFFPEDITVEWQWNGQPAENYKNTQPIMDTDGSYFVYSKLNVQKSNWEAGNTFTCSVLHEGLHNHHTEKSLSHSPGK
light: DVVMTQTPLSLPVSLGDQASISCRSSQSLVHSSGNTYLHWYLQKPGQSPKLLIYKVSNRFSGVPDRFSGSGSGTDFTLKISRVEAEDLGVYFCSQSTHVPYTFGGGTKLEIKRADAAPTVSIFPPSSEQLTSGGASVVCFLNNFYPKDINVKWKIDGSERQNGVLNSWTDQDSKDSTYSMSSTLTLTKDEYERHNSYTCEATHKTSTSPIVKSFNRNEC
What is called Kd is the constant that tells how readily two partners part at equilibrium. As to B1, the Kd is roughly 0.43 nM in data set [2] (setting [8]) and 0.4 nM in data set [2] (setting [9]).

B2: Ab-CCK: αGPR87 antibody 331CL with CCK peptide on the heavy chain C termini via a pentaglycine linker (antibody)
heavy: EVQLQQSGPDLVKPGASMKISCKASGYSFTDYTMHWVKQSHGKNFEWIGLINPYNDGTTYNQKFKGKATLTVDKSSSTAYMELLSLTSEDSAVYYCASLDYWGQGTSVTVSSAKTTPPSVYPLAPGSAAQTNSMVTLGCLVKGYFPEPVTVTWNSGSLSSGVHTFPAVLQSDLYTLSSSVTVPSSTWPSETVTCNVAHPASSTKVDKKIVPRDCGCKPCICTVPEVSSVFIFPPKPKDVLTITLTPKVTCVVVDISKDDPEVQFSWFVDDVEVHTAQTQPREEQFNSTFRSVSELPIMHQDWLNGKEFKCRVNSAAFPAPIEKTISKTKGRPKAPQVYTIPPPKEQMAKDKVSLTCMITDFFPEDITVEWQWNGQPAENYKNTQPIMDTDGSYFVYSKLNVQKSNWEAGNTFTCSVLHEGLHNHHTEKSLSHSPGKGGGGGMKLKKIKSVLKKIKSVLKKIKSVLKKIKSVVGER
light: B1 light
As for B2, the Kd in data set [2] (setting [8]) is roughly 0.46 nM; in data set [2] (setting [9]) it was 2.8 nM.

B3: ADC (conjugate)
heavy: B2 heavy
light: B1 light
peptide: MKLEEIVSELEEIVSELEEIVKELEEIVYEVGER
What is called IC50 is the concentration that gives 50% inhibition. Read a low IC50 as higher potency. As a reminder, the viability is a read-out of living cells in per cent, often relative to untreated cells. High values mean less harm to the cells, low ones more harm to the cells. On to B3, for which the “decrease in IC50 between 48 and 72 hours” value is given as roughly 4 fold in data set [1] (NCI-H358) and roughly 2 fold in data set [3] (NCI-H520). For the same molecule, the “toxicity, 24 hours treatment + 48 hours fresh media vs 72 hours treatment” value in data set [1] (NCI-H358) was “no significant difference between the two treatment groups”. In addition, the “normalized growth rate inhibition (GR)” value in data set [1] (NCI-H358, higher concentrations of ADC, 60 hours) is given as less than 0; in data set [3] (NCI-H520, higher concentrations of ADC, 60 hours) it was less than 0. For the same molecule, the “IC50, start of time course” value in data set [1] (NCI-H358, incubation 48, 72 and 120 hours, first value of 'from ... to') is given as 9.11 ng/ml of MMAE equivalent ADC; in data set [3] (NCI-H520, incubation 48, 72 and 168 hours, first value of 'from ... to') it was 12.87 ng/ml of MMAE equivalent ADC. The “IC50, end of time course” value is on record as 8.69 ng/ml of MMAE equivalent ADC in data set [1] (NCI-H358, longer incubation (up to 120 hours), last value of 'from ... to') and 5.24 ng/ml of MMAE equivalent ADC in data set [3] (NCI-H520, longer incubation (up to 168 hours), last value of 'from ... to'). Also, the IC50 in data set [3] (NCI-H520, ADC prepared at 50° C.) was 3 nM; in data set [3] (NCI-H520, ADC prepared at RT), 4.9 nM; in data set [5] (ADC prepared at 50° C.), 6.8 nM; in data set [5] (ADC prepared at RT), 5.3 nM; in data set [6] (ADC prepared at 50° C.) it was 0.8 nM; in data set [6] (ADC prepared at RT), 0.8 nM. For the same molecule, the Kd in data set [2] (setting [8]) was roughly 0.41 nM; in data set [2] (setting [9]), roughly 1.3 nM. The “fold differences in ADC and MMAE IC50s” value in data set [4] (FIG. 14) is given as greater than 100 fold. In addition, in data set [4] (FIG. 16), the “fold difference in toxicity (AUC) between ADC and MMAE” value was 1-3 fold. For the same molecule, in data set [5] (at 60 hours), the GR-based effect result is on record as “cytotoxic”. In data set [6], the GR50 result was “do not reach that value”. The “difference between 48 and 72 hour IC50s” value in data set [6] was “almost identical”. Further, in data set [7], the viability is on record as roughly 76%.
